Results published in patent US20220153854A1 (Ablynx, published 2022).
Numbering of substitutions follows the chain as printed.

What was measured:
human OX40L [1] = molecular target: T1, human OX40L (human, UniProt P23510 51-183); test: SPR
T1 construct: Protein in solution or immobilised (SPR, Gyrolab); construct not described; also called huOX40L; hOX40L
T1 sequence (looked up): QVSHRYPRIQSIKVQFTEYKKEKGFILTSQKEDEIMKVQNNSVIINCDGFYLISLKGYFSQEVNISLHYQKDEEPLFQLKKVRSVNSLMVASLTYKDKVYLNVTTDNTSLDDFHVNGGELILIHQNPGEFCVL

cyno OX40L [2] = molecular target: T2, cyno OX40L (cynomolgus monkey, UniProt G7NVH7 51-183); test: SPR
T2 construct: also called cyOX40L; cynomolgus monkey OX40L
T2 sequence: T1 sequence (looked up) with R5Q, K23E

[3] = molecular target: T3, membrane bound human OX40L on CHO-KI cells (human, UniProt P23510 1-183); test: cell-based or functional assay
T3 sequence (looked up): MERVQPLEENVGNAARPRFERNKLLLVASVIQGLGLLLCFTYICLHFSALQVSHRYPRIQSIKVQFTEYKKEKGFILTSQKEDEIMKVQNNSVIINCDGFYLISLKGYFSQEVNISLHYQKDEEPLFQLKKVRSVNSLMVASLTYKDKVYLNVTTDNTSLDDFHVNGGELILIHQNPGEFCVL

[4] = molecular target: T4, membrane bound cyno OX40L on CHO-KI cells (cynomolgus monkey, UniProt G7NVH7 1-183); test: cell-based or functional assay
T4 sequence: T3 sequence (looked up) with R55Q, K73E

human OX40L [5] = molecular target: T1, human OX40L; test: SPR KD against parental F027300042 (15B07)
cyno OX40L [6] = molecular target: T2, cyno OX40L; test: SPR KD against parental F027300042 (15B07)

B1: F027301552 (15B07AM) (VHH)
VHH: DVQLVESGGGVVQPGGSLRLSCAASRSIGRYDRMGWYRHRPGEPRELVATITGGSSINYGDSVKGRFTISIDNSKNTVYLQMNSLRPEDTALYYCNFNKYQISRDTWGQGTLVTVSS
With B1 the Kd (human OX40L [1]) was 0.0853 nM, the Kd (cyno OX40L [2]) was 0.108 nM and the “IC50 (nM) PBMC assay human OX40L” value [3] was 1.78 nM. For the same binder, the “IC50 (nM) PBMC assay cyno OX40L” value [4] was 7.58 nM, the “Fold improved affinity vs parental” value (human OX40L [5]) was 53 fold and the “Fold improved affinity vs parental” value (cyno OX40L [6]) was 92 fold.
